# Experiment: Transpeptidation of Bz-G-A-R-A-R-A-OH (arginine at P1) with H-Leu-NH2, Table 1
# Type: biochemical
# Conditions: [N] 375 mM H-Leu-NH2; 2mM substrate; pH 7.5; [E] 0.1 mg/mL
# Description: The mutant carboxypeptidase enzvmes used in these studies were produced by site-directed mutagenesis, essentially following the procedures described in published PCT Patent Application No. WO 95/20039. In general, oligonucleotides synthesized to encode the amino acid substitution were used to produce the mutant enzymes.
# Transamidation reactions were carried out generally as described in PCT Application WO 95/20039. In general, the method included dissolving the nucleophile (H-Leu-NH2, unless otherwise indicated) in 50 mM HEPES, 5 mM EDTA and adjusting the pH to 7.5, 5 μl of peptide substrate (8 mM Bz-G-A-R-A-R-A-OH, unless otherwise indicated, in methanol) was added to 190 μl nucleophile solution followed by 5 μl enzyme, […]
# During the reaction, 20 μl aliquots were removed from the reaction mixture and added to 50 μl 1% trifluoroacetic acid to quench the reaction. The reactant composition was determined by HPLC using a Waters HPLC equipped with a C-18 Waters Novapac 4μ reverse phase column and various gradients of acetonitrile in 0.1% trifluoroacetic acid. The separation was monitored at 254 nm allowing the direct quantification of the products from the integrated peak areas. The composition of the reaction mixture was determined at least twvice during the reaction, the first when 20-50% (preferably 35%) of the substrate had been consumed in the reaction and the second time when 50-90% (preferably 80%) of the peptide substrate had been consumed.
# The reaction products were collected and identified by amino acid analysis after acid hydrolysis using a Pharmacia Alpha Plus analyzer. Further identification was obtained by co-chromatography of authentic standard compounds.
# The fraction of aminolysis (fa) was expressed as the ratio between the formed aminolysis product and the sum of all products formed. Unconsumed substrate was disregarded in the calculations.
row,Molecule,fa (fraction of aminolysis)
1,"L178D: carboxypeptidase Y S1 mutant, substitution L178D (protein, UniProt P00729 112-532, looked up, variant L178D) Carboxypeptidase Y: KIKDPKILGIDPNVTQYTGYLDVEDEDKHFFFWTFESRNDPAKDPVILWLNGGPGCSSLTGLFFELGPSSIGPDLKPIGNPYSWNSNATVIFLDQPVNVGFSYSGSSGVSNTVAAGKDVYNFLELFFDQFPEYVNKGQDFHIAGESYAGHYIPVFASEILSHKDRNFNLTSVLIGNGDTDPLTQYNYYEPMACGEGGEPSVLPSEECSAMEDSLERCLGLIESCYDSQSVWSCVPATIYCNNAQLAPYQRTGRNVYDIRKDCEGGNLCYPTLQDIDDYLNQDYVKEAVGAEVDHYESCNFDINRNFLFAGDWMKPYHTAVTDLLNQDLPILVYAGDKDFICNWLGNKAWTDVLPWKYDEEFASQKVRNWTASITDEVAGEVKSYKHFTYLRVFNGGHMVPFDVPENALSMVNEWIHGGFSL",0.81
2,"L178D + W312N: carboxypeptidase Y combination mutant L178D + W312N (protein, UniProt P00729 112-532, looked up, variant L178D W312N) Carboxypeptidase Y: KIKDPKILGIDPNVTQYTGYLDVEDEDKHFFFWTFESRNDPAKDPVILWLNGGPGCSSLTGLFFELGPSSIGPDLKPIGNPYSWNSNATVIFLDQPVNVGFSYSGSSGVSNTVAAGKDVYNFLELFFDQFPEYVNKGQDFHIAGESYAGHYIPVFASEILSHKDRNFNLTSVLIGNGDTDPLTQYNYYEPMACGEGGEPSVLPSEECSAMEDSLERCLGLIESCYDSQSVWSCVPATIYCNNAQLAPYQRTGRNVYDIRKDCEGGNLCYPTLQDIDDYLNQDYVKEAVGAEVDHYESCNFDINRNFLFAGDNMKPYHTAVTDLLNQDLPILVYAGDKDFICNWLGNKAWTDVLPWKYDEEFASQKVRNWTASITDEVAGEVKSYKHFTYLRVFNGGHMVPFDVPENALSMVNEWIHGGFSL",0.71
3,"L178S + W312N: carboxypeptidase Y combination mutant L178S + W312N (protein, UniProt P00729 112-532, looked up, variant L178S W312N) Carboxypeptidase Y: KIKDPKILGIDPNVTQYTGYLDVEDEDKHFFFWTFESRNDPAKDPVILWLNGGPGCSSLTGLFFELGPSSIGPDLKPIGNPYSWNSNATVIFLDQPVNVGFSYSGSSGVSNTVAAGKDVYNFLELFFDQFPEYVNKGQDFHIAGESYAGHYIPVFASEILSHKDRNFNLTSVLIGNGSTDPLTQYNYYEPMACGEGGEPSVLPSEECSAMEDSLERCLGLIESCYDSQSVWSCVPATIYCNNAQLAPYQRTGRNVYDIRKDCEGGNLCYPTLQDIDDYLNQDYVKEAVGAEVDHYESCNFDINRNFLFAGDNMKPYHTAVTDLLNQDLPILVYAGDKDFICNWLGNKAWTDVLPWKYDEEFASQKVRNWTASITDEVAGEVKSYKHFTYLRVFNGGHMVPFDVPENALSMVNEWIHGGFSL",0.63
4,"W312N: carboxypeptidase Y S1 mutant, substitution W312N (protein, UniProt P00729 112-532, looked up, variant W312N) Carboxypeptidase Y: KIKDPKILGIDPNVTQYTGYLDVEDEDKHFFFWTFESRNDPAKDPVILWLNGGPGCSSLTGLFFELGPSSIGPDLKPIGNPYSWNSNATVIFLDQPVNVGFSYSGSSGVSNTVAAGKDVYNFLELFFDQFPEYVNKGQDFHIAGESYAGHYIPVFASEILSHKDRNFNLTSVLIGNGLTDPLTQYNYYEPMACGEGGEPSVLPSEECSAMEDSLERCLGLIESCYDSQSVWSCVPATIYCNNAQLAPYQRTGRNVYDIRKDCEGGNLCYPTLQDIDDYLNQDYVKEAVGAEVDHYESCNFDINRNFLFAGDNMKPYHTAVTDLLNQDLPILVYAGDKDFICNWLGNKAWTDVLPWKYDEEFASQKVRNWTASITDEVAGEVKSYKHFTYLRVFNGGHMVPFDVPENALSMVNEWIHGGFSL",0.23
5,"L178A: carboxypeptidase Y S1 mutant, substitution L178A (protein, UniProt P00729 112-532, looked up, variant L178A) Carboxypeptidase Y: KIKDPKILGIDPNVTQYTGYLDVEDEDKHFFFWTFESRNDPAKDPVILWLNGGPGCSSLTGLFFELGPSSIGPDLKPIGNPYSWNSNATVIFLDQPVNVGFSYSGSSGVSNTVAAGKDVYNFLELFFDQFPEYVNKGQDFHIAGESYAGHYIPVFASEILSHKDRNFNLTSVLIGNGATDPLTQYNYYEPMACGEGGEPSVLPSEECSAMEDSLERCLGLIESCYDSQSVWSCVPATIYCNNAQLAPYQRTGRNVYDIRKDCEGGNLCYPTLQDIDDYLNQDYVKEAVGAEVDHYESCNFDINRNFLFAGDWMKPYHTAVTDLLNQDLPILVYAGDKDFICNWLGNKAWTDVLPWKYDEEFASQKVRNWTASITDEVAGEVKSYKHFTYLRVFNGGHMVPFDVPENALSMVNEWIHGGFSL",0.45
6,"L245E + W312N: carboxypeptidase Y combination mutant L245E + W312N (protein, UniProt P00729 112-532, looked up, variant L245E W312N) Carboxypeptidase Y: KIKDPKILGIDPNVTQYTGYLDVEDEDKHFFFWTFESRNDPAKDPVILWLNGGPGCSSLTGLFFELGPSSIGPDLKPIGNPYSWNSNATVIFLDQPVNVGFSYSGSSGVSNTVAAGKDVYNFLELFFDQFPEYVNKGQDFHIAGESYAGHYIPVFASEILSHKDRNFNLTSVLIGNGLTDPLTQYNYYEPMACGEGGEPSVLPSEECSAMEDSLERCLGLIESCYDSQSVWSCVPATIYCNNAQEAPYQRTGRNVYDIRKDCEGGNLCYPTLQDIDDYLNQDYVKEAVGAEVDHYESCNFDINRNFLFAGDNMKPYHTAVTDLLNQDLPILVYAGDKDFICNWLGNKAWTDVLPWKYDEEFASQKVRNWTASITDEVAGEVKSYKHFTYLRVFNGGHMVPFDVPENALSMVNEWIHGGFSL",0.20
7,"L178D + W312D: carboxypeptidase Y combination mutant L178D + W312D (protein, UniProt P00729 112-532, looked up, variant L178D W312D) Carboxypeptidase Y: KIKDPKILGIDPNVTQYTGYLDVEDEDKHFFFWTFESRNDPAKDPVILWLNGGPGCSSLTGLFFELGPSSIGPDLKPIGNPYSWNSNATVIFLDQPVNVGFSYSGSSGVSNTVAAGKDVYNFLELFFDQFPEYVNKGQDFHIAGESYAGHYIPVFASEILSHKDRNFNLTSVLIGNGDTDPLTQYNYYEPMACGEGGEPSVLPSEECSAMEDSLERCLGLIESCYDSQSVWSCVPATIYCNNAQLAPYQRTGRNVYDIRKDCEGGNLCYPTLQDIDDYLNQDYVKEAVGAEVDHYESCNFDINRNFLFAGDDMKPYHTAVTDLLNQDLPILVYAGDKDFICNWLGNKAWTDVLPWKYDEEFASQKVRNWTASITDEVAGEVKSYKHFTYLRVFNGGHMVPFDVPENALSMVNEWIHGGFSL",0.71
8,"W312L: carboxypeptidase Y S1 mutant, substitution W312L (protein, UniProt P00729 112-532, looked up, variant W312L) Carboxypeptidase Y: KIKDPKILGIDPNVTQYTGYLDVEDEDKHFFFWTFESRNDPAKDPVILWLNGGPGCSSLTGLFFELGPSSIGPDLKPIGNPYSWNSNATVIFLDQPVNVGFSYSGSSGVSNTVAAGKDVYNFLELFFDQFPEYVNKGQDFHIAGESYAGHYIPVFASEILSHKDRNFNLTSVLIGNGLTDPLTQYNYYEPMACGEGGEPSVLPSEECSAMEDSLERCLGLIESCYDSQSVWSCVPATIYCNNAQLAPYQRTGRNVYDIRKDCEGGNLCYPTLQDIDDYLNQDYVKEAVGAEVDHYESCNFDINRNFLFAGDLMKPYHTAVTDLLNQDLPILVYAGDKDFICNWLGNKAWTDVLPWKYDEEFASQKVRNWTASITDEVAGEVKSYKHFTYLRVFNGGHMVPFDVPENALSMVNEWIHGGFSL",0.07
